Measurements from the Immune Epitope Database (IEDB).
Values belong to the sequence of their own block, whether it stands above or below them.

What was measured:
HLA-A*26:01 [1] = experiment: IEDB peptide-MHC binding, purified MHC/competitive/fluorescence; filed as Kd, often an IC50 or EC50 that approximates it; ≥ and ≤ were set here for values at or beyond the usual limits of such assays
HLA-A*02:01 [2] = experiment: as above
HLA-B*15:01 [3] = experiment: as above; details: source organism: Orthohantavirus andesense
HLA-B*46:01 [4] = experiment: as above
HLA-B*18:01 [5] = experiment: as above
HLA-B*39:01 [6] = experiment: as above
HLA-A*69:01 [7] = experiment: as above
HLA-B*27:03 [8] = experiment: as above
HLA-B*58:01 [9] = experiment: as above
HLA-B*51:01 [10] = experiment: as above; details: source organism: Orthohantavirus andesense
HLA-A*02:16 = experiment: IEDB peptide-MHC binding, purified MHC/direct/fluorescence; filed as Kd, often an IC50 or EC50 that approximates it; ≥ and ≤ were set here for values at or beyond the usual limits of such assays
HLA-A*02:03 = experiment: as above
HLA-A*02:12 = experiment: as above
HLA-A*03:01 [11] = experiment: as above
HLA-A*02:11 = experiment: as above
HLA-A*02:19 = experiment: as above
HLA-A*68:02 = experiment: as above
HLA-B*15:01 [12] = experiment: as above
HLA-A*29:02 = experiment: as above; details: source organism: Ebola virus Yambio0403
HLA-A*24:03 = experiment: as above
HLA-B*58:01 [13] = experiment: IEDB peptide-MHC binding, purified MHC/competitive/fluorescence; ≥ and ≤ were set here for values at or beyond the usual limits of such assays; details: source organism: Homo sapiens
HLA-B*51:01 [14] = experiment: as above; details: source organism: Mus musculus
HLA-C*03:03 = experiment: IEDB peptide-MHC binding, purified MHC/direct/fluorescence; filed as Kd, often an IC50 or EC50 that approximates it; ≥ and ≤ were set here for values at or beyond the usual limits of such assays; details: source organism: Mus musculus
HLA-A*26:01 [15] = experiment: as above
HLA-B*07:02 = experiment: as above
HLA-A*02:01 [16] = experiment: as above
HLA-B*35:01 = experiment: as above
HLA-B*27:05 = experiment: as above; details: source organism: Escherichia coli O157:H7
HLA-B*40:01 = experiment: as above; details: source organism: Escherichia coli O157:H7
HLA-A*31:01 = experiment: as above; details: source organism: Escherichia coli O157:H7
HLA-A*01:01 = experiment: as above; details: source organism: Escherichia coli O157:H7
HLA-B*44:02 = experiment: as above; details: source organism: Escherichia coli O157:H7
HLA-A*69:01 [17] = experiment: as above; details: source organism: Escherichia coli O157:H7
HLA-B*58:01 [18] = experiment: as above; details: source organism: Escherichia coli O157:H7
HLA-A*11:01 = experiment: as above; details: source organism: Escherichia coli O157:H7
HLA-B*08:01 = experiment: as above; details: source organism: Escherichia coli O157:H7
HLA-A*03:01 [19] = experiment: IEDB peptide-MHC binding, purified MHC/competitive/fluorescence; filed as Kd, often an IC50 or EC50 that approximates it; ≥ and ≤ were set here for values at or beyond the usual limits of such assays; details: source organism: Yersinia pestis Nepal516
HLA-B*46:01 [20] = experiment: IEDB peptide-MHC binding, purified MHC/direct/fluorescence; filed as Kd, often an IC50 or EC50 that approximates it; ≥ and ≤ were set here for values at or beyond the usual limits of such assays; details: source organism: Encephalitozoon cuniculi GB-M1
HLA-B*18:01 [21] = experiment: as above; details: source organism: Encephalitozoon cuniculi GB-M1
HLA-B*57:01 = experiment: as above; details: source organism: Encephalitozoon cuniculi GB-M1
HLA-B*39:01 [22] = experiment: as above; details: source organism: Encephalitozoon cuniculi GB-M1
HLA-B*27:03 [23] = experiment: as above; details: source organism: Encephalitozoon cuniculi GB-M1
HLA-B*51:01 [24] = experiment: as above; details: source organism: Encephalitozoon cuniculi GB-M1
[25] = source organism: Orthohantavirus andesense
[26] = source organism: Orthohantavirus puumalaense
[27] = source organism: Zaire ebolavirus
[28] = source organism: Ebola virus Yambio0403
[29] = source organism: Escherichia coli O157:H7
[30] = source organism: Encephalitozoon cuniculi GB-M1

Sequence: QIQAGNFHW
Kd (HLA-A*26:01 [1]; [25]): ≥ 20 µM
Kd (HLA-A*02:01 [2]; [25]): ≥ 20 µM
Kd (HLA-B*15:01 [3]): ≥ 20 µM
Kd (HLA-B*46:01 [4]; [25]): ≥ 20 µM
Kd (HLA-B*18:01 [5]; [25]): ≥ 20 µM
Kd (HLA-B*39:01 [6]; [25]): ≥ 20 µM
Kd (HLA-A*69:01 [7]; [25]): ≥ 20 µM
Kd (HLA-B*27:03 [8]; [25]): ≥ 20 µM
Kd (HLA-B*58:01 [9]; [25]): 0.0022 µM
Kd (HLA-B*51:01 [10]): ≥ 20 µM
Kd (HLA-A*02:16; [26]): ≥ 20 µM
Kd (HLA-A*02:03; [26]): ≥ 20 µM
Kd (HLA-A*02:12; [26]): ≥ 20 µM
Kd (HLA-A*03:01 [11]; [26]): ≥ 20 µM
Kd (HLA-A*02:11; [26]): ≥ 20 µM
Kd (HLA-A*02:19; [26]): ≥ 20 µM
Kd (HLA-A*68:02; [26]): ≥ 20 µM

Sequence: ESLLHQASW
Kd (HLA-A*26:01 [1]; [27]): ≥ 20 µM
Kd (HLA-A*02:01 [2]; [27]): ≥ 20 µM
Kd (HLA-B*46:01 [4]; [27]): ≥ 20 µM
Kd (HLA-B*18:01 [5]; [27]): ≥ 20 µM
Kd (HLA-B*39:01 [6]; [27]): ≥ 20 µM
Kd (HLA-A*69:01 [7]; [27]): ≥ 20 µM
Kd (HLA-B*27:03 [8]; [27]): ≥ 20 µM
Kd (HLA-B*58:01 [9]; [27]): 0.0021 µM
Kd (HLA-B*15:01 [12]; [27]): ≥ 20 µM
Kd (HLA-A*02:16; [28]): ≥ 20 µM
Kd (HLA-A*29:02): ≥ 20 µM
Kd (HLA-A*02:03; [28]): ≥ 20 µM
Kd (HLA-A*02:12; [28]): ≥ 20 µM
Kd (HLA-A*03:01 [11]; [28]): ≥ 20 µM
Kd (HLA-A*02:11; [28]): ≥ 20 µM
Kd (HLA-A*24:03; [28]): ≥ 20 µM
Kd (HLA-A*02:19; [28]): ≥ 20 µM
Kd (HLA-A*68:02; [28]): ≥ 20 µM

Sequence: LPEFERRTL
Kd (HLA-A*26:01 [15]; [29]): ≥ 20 µM
Kd (HLA-B*07:02; [29]): 0.0371 µM
Kd (HLA-A*02:01 [16]; [29]): ≥ 20 µM
Kd (HLA-B*35:01; [29]): 0.0163 µM
Kd (HLA-B*27:05): ≥ 20 µM
Kd (HLA-B*15:01 [12]; [29]): ≥ 20 µM
Kd (HLA-B*40:01): ≥ 20 µM
Kd (HLA-A*03:01 [11]; [29]): ≥ 20 µM
Kd (HLA-A*31:01): ≥ 20 µM
Kd (HLA-A*01:01): ≥ 20 µM
Kd (HLA-A*24:03; [29]): ≥ 20 µM
Kd (HLA-B*44:02): ≥ 20 µM
Kd (HLA-A*69:01 [17]): ≥ 20 µM
Kd (HLA-B*58:01 [18]): ≥ 20 µM
Kd (HLA-A*11:01): ≥ 20 µM
Kd (HLA-B*08:01): 4.22 µM

Sequence: MTTSMTMSY
Kd (HLA-A*03:01 [19]): 0.302 µM
Kd (HLA-B*58:01 [9]; source organism: Yersinia pestis Nepal516): 0.0475 µM

Further lines, results first:

IC50 (HLA-B*58:01 [13]): ≥ 20 µM
Sequence: QSSGSSSSGF

IC50 (HLA-B*51:01 [14]): 1.85 µM
Kd (HLA-C*03:03): 0.002 µM
Sequence: VALFSSCPV

Kd (HLA-A*26:01 [15]; [30]): ≥ 20 µM
Kd (HLA-B*07:02; [30]): 4.5 µM
Kd (HLA-A*02:01 [16]; [30]): ≥ 20 µM
Kd (HLA-B*35:01; [30]): 0.002 µM
Kd (HLA-B*15:01 [12]; [30]): ≥ 20 µM
Kd (HLA-A*02:16; [30]): ≥ 20 µM
Kd (HLA-B*46:01 [20]): ≥ 20 µM
Kd (HLA-B*18:01 [21]): ≥ 20 µM
Kd (HLA-A*02:03; [30]): ≥ 20 µM
Kd (HLA-A*02:12; [30]): ≥ 20 µM
Kd (HLA-B*57:01): ≥ 20 µM
Kd (HLA-A*03:01 [11]; [30]): ≥ 20 µM
Kd (HLA-A*02:11; [30]): ≥ 20 µM
Kd (HLA-B*39:01 [22]): ≥ 20 µM
Kd (HLA-A*02:19; [30]): ≥ 20 µM
Kd (HLA-A*68:02; [30]): ≥ 20 µM
Kd (HLA-B*27:03 [23]): ≥ 20 µM
Kd (HLA-B*51:01 [24]): ≥ 20 µM
Sequence: SPLPITLKY
